Measured values as given in US20230025129A1 (KYMAB, published 2023).
Changes are numbered by the printed parent chain. Numbers in names are those of the source.

T1: mouse matriptase-2 ECD protein his tag (mouse, UniProt Q9DBI0 80-811)
T1 construct: aa 80-811 of Q9DBI0 with C-terminal linker and His tag; also called mouse MTP-2 ECD; moMTP-2
T1 sequence: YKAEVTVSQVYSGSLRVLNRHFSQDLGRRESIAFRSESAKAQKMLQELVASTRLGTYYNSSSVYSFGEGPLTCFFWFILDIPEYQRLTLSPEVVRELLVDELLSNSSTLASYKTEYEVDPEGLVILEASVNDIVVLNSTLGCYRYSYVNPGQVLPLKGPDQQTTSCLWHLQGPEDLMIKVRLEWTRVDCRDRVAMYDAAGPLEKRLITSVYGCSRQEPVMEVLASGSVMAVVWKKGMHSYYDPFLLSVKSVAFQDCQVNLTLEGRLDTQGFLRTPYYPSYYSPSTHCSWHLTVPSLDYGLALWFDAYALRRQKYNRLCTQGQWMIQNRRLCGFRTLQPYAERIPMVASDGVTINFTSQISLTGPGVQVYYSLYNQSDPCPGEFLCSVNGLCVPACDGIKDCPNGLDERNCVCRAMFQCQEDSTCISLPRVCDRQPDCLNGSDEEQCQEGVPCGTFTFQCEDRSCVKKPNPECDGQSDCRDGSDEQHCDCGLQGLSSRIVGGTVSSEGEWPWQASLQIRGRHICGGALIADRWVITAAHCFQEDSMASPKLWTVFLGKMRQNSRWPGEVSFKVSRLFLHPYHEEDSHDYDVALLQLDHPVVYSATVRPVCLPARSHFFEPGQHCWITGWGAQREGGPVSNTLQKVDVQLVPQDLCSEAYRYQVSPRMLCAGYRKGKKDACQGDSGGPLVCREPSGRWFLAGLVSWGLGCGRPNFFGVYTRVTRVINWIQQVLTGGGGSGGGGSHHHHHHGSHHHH

T2: human matriptase-2 ECD protein his tag (human, UniProt Q8IU80 78-811)
T2 construct: also called human MTP-2 ECD; huMTP-2
T2 sequence: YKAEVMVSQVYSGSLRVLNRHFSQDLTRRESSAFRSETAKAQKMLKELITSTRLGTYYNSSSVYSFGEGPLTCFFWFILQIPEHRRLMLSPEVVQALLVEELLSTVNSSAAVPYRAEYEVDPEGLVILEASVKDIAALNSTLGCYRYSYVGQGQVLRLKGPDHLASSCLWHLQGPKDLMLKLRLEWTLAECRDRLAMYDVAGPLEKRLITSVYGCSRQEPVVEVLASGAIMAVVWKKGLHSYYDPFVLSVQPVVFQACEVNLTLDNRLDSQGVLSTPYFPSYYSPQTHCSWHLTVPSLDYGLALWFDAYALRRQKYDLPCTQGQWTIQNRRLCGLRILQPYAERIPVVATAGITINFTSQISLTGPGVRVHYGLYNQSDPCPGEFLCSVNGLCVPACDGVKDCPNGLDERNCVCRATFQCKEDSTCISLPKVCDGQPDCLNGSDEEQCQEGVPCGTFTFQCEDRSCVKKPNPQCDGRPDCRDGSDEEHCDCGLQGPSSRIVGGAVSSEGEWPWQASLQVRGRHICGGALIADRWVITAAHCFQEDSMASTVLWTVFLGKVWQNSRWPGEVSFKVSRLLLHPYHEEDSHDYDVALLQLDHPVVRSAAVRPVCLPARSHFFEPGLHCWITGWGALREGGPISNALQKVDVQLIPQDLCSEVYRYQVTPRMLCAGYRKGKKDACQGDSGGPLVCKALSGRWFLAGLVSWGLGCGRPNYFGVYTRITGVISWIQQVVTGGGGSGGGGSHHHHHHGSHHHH

B1: NORI-011 (antibody, human IgG4 S228P, lambda)
heavy: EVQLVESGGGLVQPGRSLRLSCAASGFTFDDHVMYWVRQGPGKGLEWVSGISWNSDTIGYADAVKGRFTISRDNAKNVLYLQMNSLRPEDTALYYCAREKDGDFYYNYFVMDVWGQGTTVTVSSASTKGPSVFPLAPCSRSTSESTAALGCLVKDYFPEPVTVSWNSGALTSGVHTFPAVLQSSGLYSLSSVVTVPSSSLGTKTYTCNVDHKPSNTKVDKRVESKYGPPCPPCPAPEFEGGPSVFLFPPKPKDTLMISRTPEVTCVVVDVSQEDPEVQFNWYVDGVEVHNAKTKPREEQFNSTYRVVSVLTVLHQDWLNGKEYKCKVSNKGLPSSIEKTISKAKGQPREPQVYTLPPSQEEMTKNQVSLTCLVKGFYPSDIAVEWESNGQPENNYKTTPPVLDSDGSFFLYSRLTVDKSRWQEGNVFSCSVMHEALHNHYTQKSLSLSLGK
light: QSALTQPPSASGSPGQSVTISCTGTSSDVGFYNFVSWYQQHPDKAPKVMIYEVSKRPSGVPDRFSGSKSGNTASLTVSGLQAEDEADYYCSSYAGSNKVVFGGGTKLTVLGQPKAAPSVTLFPPSSEELQANKATLVCLISDFYPGAVTVAWKADSSPVKAGVETTTPSKQSNNKYAASSYLSLTPEQWKSHRSYSCQVTHEGSTVEKTVAPTECS
notes: human IgG4PE, lambda; NORI-010 with a P124S mutation in the VH domain
B2: NORI-008 (antibody, human IgG4 S228P, kappa, V domains shown)
VH: QVQLQESGPGLVKPSETLSLTCSVSGGSVSSGRYYWTWIRQPPGKGLEWIGYISNSGNTNYNPSLKSRVTISLDTSKKQFSLSLSAVTAADTAVYYCARGFIYDYWFDPWGQGSLVTVSS
VL: DSQMTQSPSSLSASVGDRVTITCQASQDIDNYLNWYQQRPGKAPKLLIYDASKLETGVPSRFSGSGSGTDFTFTISSLQPEDFATYYCQQYGNLPITFGQGTRLDIKR
notes: human IgG4PE, kappa, in the in vitro assays; a mouse IgG1 format was used in one in vivo study only; also called NORI-008 hulgG4PE; NORI-008 IgG
B3: NORI-013 (antibody, human IgG4 S228P, lambda, V domains shown)
VH: EVQLVESGGGLIQAGRSLRLSCAASGFTFDEHVIYWVRQIPGKGLEWISSISWKSDIIAYADSVKGRFTISRDNAKNALYLQMNSLRAEDTALYYCAREKDGDFYYYYFAMDVWGQGTTVTVSS
VL: QSALTQPPSASGSPGQSVTLSCTGTSSDVGYYNYVSWYLQHPGKAPKLMIYEVSKRPSGVPDRFSGSKSANTASLTVSGLQAEDEADYYCSSYAGSNKVVFGGGTKVTVLG
notes: human IgG4PE, lambda
B4: NORI-014 (antibody, human IgG4 S228P, lambda, V domains shown)
VH: B3 VH with I34M, S52T
VL: B3 VL
notes: human IgG4PE, lambda
B5: NORI-006 (antibody, human IgG4 S228P, kappa, V domains shown)
VH: EVQLVESGGGLIKPGRSLRLSCTGSGFTFGDFGLSWFRQAPGKGLEWISFIRSKPYGGTTDYAASVKGRFTISRDDSKNVAYLQMNSLKTEDTAVYYCARNEILTGYYIFDYWGQGTLVTVSS
VL: DIQMTQSPSSLSASLGDRVTITCQASQDINNYLNWYQVQPGKAPKLLIFDASILETGVPSRFSGSGSGTDFSFTISSLQPEDIATYYCQQYDNLPLTFGGGTKVDFKR
notes: human IgG4PE, kappa
B6: NORI-003 (antibody, human IgG4 S228P, kappa, V domains shown)
VH: EVQLVESGGGLVKPGRSLRLSCTGSGFTFGDFGMSWFRQAPGKGLEWVGFIRSKPYGGTTDYAPSVRGRFSISRDDSKGIVYLQMNSLRTEDTAVYYCSRNEILTGYYIFDYWGQGTLVTVSS
VL: B5 VL with Q27H, N30T, N34I, V38Q, Q39K, K45R, S72T, I83F, D92Y, F106I
notes: human IgG4PE, kappa; NORI-002 with the free cysteine of the VH domain mutated (printed as 'C49C')

The binders below were run against T1, mouse matriptase-2 ECD protein his tag (assay: HTRF competition with 647-labelled aprotinin for mouse MTP-2 protein).
Excerpt: (§1) Aprotinin is a pan serine protease inhibitor and is known to occupy the active site of serine proteases. A HTRF competition assay against labelled aprotinin confirmed that NORI-003, NORI-006, NORI-008 and NORI-011 were binding at or near this same site and competed with aprotinin for binding to human MTP-2 protein. […] This was confirmed by their lack of competition of aprotinin against moMTP-2 while IC50 values in the enzymatic assay were similar to those of NORI-011. […] FIG. 8. Table L.
(§2) Antibodies were titrated into HTRF buffer (DPBS (Gibco—14190144) with 0.1% BSA (Sigma—A7906) and potassium fluoride 0.53M (Sigma—60240-250 G)) at 4× conc with a starting concentration of 200 nM. 5 μL/w of antibodies were added to 384-well white plates (Greiner—784904). Purified proteins of huMTP-2 and moMTP-2 were diluted into HTRF buffer (huMTP-2=40 nM and moMTP-2=240 nM) 4× final conc and plate 5 μL/w. Anti-MTP-2 mAb (NORI-037) in molgG1 backbone was then diluted to 1.2 nM 4× final conc with DELFIA Eu-N1 Rabbit Anti-Mouse-IgG antibody (AD0207) at a 1:1000 dilution 4× final conc in HTRF buffer. Finally, dilute 647-labelled Aprotinin (Sigma—A3428) in HTRF buffer to 20 nM 4× final conc and plate 5 μL/w. Incubate plates for 3 hours or more at RT in the dark. Read plate using HTRF 100 flashes protocol on the EnVision plate reader at 1H 2H and 3H. (Ex: 340 nm Em1: 620 nm Em2: 665 nm).

| Binder | IC50 |
| --- | --- |
| B1 | 120 nM |
| B2 | 1.42 nM |

What follows are binders tested against T1, mouse matriptase-2 ECD protein his tag (assay: SPR (Biacore 8K), huIgG4PE captured on anti-human Fc, MTP-2 ECD as analyte, 1:1 fit; true KD could be < the value shown).
Description: (§3) Off-rate screening was performed by surface plasmon resonance (SPR), using a Biacore 8K system (GE Healthcare). Anti-human Fc mix (˜1000 RU) were immobilised in both active and reference channels in HBS-P+ buffer (GE BR100671) pH 7.4. Anti-MTP-2 hulgG4PE antibodies were then captured for 60 sec at 10 μl/min at 1 μg/ml concentration (approximatively 35 and 50 RU were captured) only on the active channel. MTP-2 ECD protein analytes were then injected (at 100, 25, 6.25, 1.56 and 0 nM concentrations) for 120 sec (association time) at 30 μl/min and dissociation monitored for 600 sec. Multiple cycle kinetics mode was used with all 8 channels being used. Reference and background were subtracted from the sensorgrams for each antibody and data was fitted using a 1:1 interaction model in the Biacore evaluation software. Rmax, ka, kd globally fitted, RI=0.

| Binder | Kd |
| --- | --- |
| B3 | ≤ 0.949 nM |
| B4 | ≤ 0.83 nM |

What follows are binders tested against T2, human matriptase-2 ECD protein his tag (assay: HTRF competition with 647-labelled aprotinin for human MTP-2 protein).
Excerpt: as §1, §2

| Binder | IC50 |
| --- | --- |
| B5 | 13.9 nM |
| B6 | 7.28 nM |
| B1 | 17 nM |
| B2 | 0.256 nM |

What follows are binders tested against T1, mouse matriptase-2 ECD protein his tag (assay: SPR (Biacore 8K), huIgG4PE captured on anti-human Fc, MTP-2 ECD as analyte, 1:1 fit; off-rate too slow to be determined).
Description: as §3

| Binder | koff |
| --- | --- |
| B3 | ≤ 1e-05 s⁻¹ |
| B4 | ≤ 1e-05 s⁻¹ |

The binders below were run against T2, human matriptase-2 ECD protein his tag (assay: cell-based or functional assay).

| Binder | Inhibition enzymatic activity human MTP2 protein (IC50) |
| --- | --- |
| B5 | 1.26 nM |
| B6 | 1.6 nM |
| B1 | 11.4 nM |
| B2 | 0.446 nM |

These binders were tested against T1, mouse matriptase-2 ECD protein his tag (assay: cell-based or functional assay).

| Binder | Inhibition enzymatic activity mouse MTP2 protein (IC50) |
| --- | --- |
| B5 | 27.6 nM |
| B6 | 19 nM |
| B1 | 9.88 nM |
| B2 | 0.757 nM |
